According to PMC10502012, “Molecular basis of TASL recruitment by the peptide/histidine transporter 1, PHT1” (Nature Communications, 2023):
Where a chain is given by its changes, count along the chain named.

B1: 25 [Sybody 25] (VHH)
VHH: QVQLVESGGGSVQAGGSLRLSCAASGNIWDIRYLGWFRQAPGKEREGVAALETQYGYTYYADSVKGRFTVSLDNAKNTVYLQMNSLKPEDTALYYCAAADIGYYTPLIHVGWYSYWGQGTQVTVSA
B2: 139 (VHH)
VHH: QVQLVESGGGSVQAGGSLRLSCAASGHIRWIKYLGWFRQAPGKEREGVAALYTYEGQTYYADSVKGRFTVSLDNAKNTVYLQMNSLKPEDTALYYCAAAYFGAFYPLSYDAYYYWGQGTQVTVSA
B3: 23 [Sybody 23] (VHH)
VHH: QVQLVESGGGSAQAGGSLRLSCAASGNIAHIYYLGWFRQAPGKEREGVAALMTFTGWTYYADSVKGRFTVSLDNAKNTVYLQMNSLKPEDTALYYCAAATHGNWNPLQSDRYQYWGQGTQVTVSA
B4: 146 (VHH)
VHH: QVQLVESGGGLVQAGGSLRLSCAASGFPVDTTNMHWYRQAPGKEREWVAAIHSSGTYTFYADSVKGRFTISRDNAKNTVYLQMNSLKPEDTAVYYCNVKDKGAHLWWYDYWGQGTQVTVSA
B5: 2 [Sybody 2] (VHH)
VHH: QVQLVESGGGLVQAGGSLRLSCAASGFPVNTRTMHWYRQAPGKEREWVAAIYSSGQNTFYADSVKGRFTISRDNAKNTVYLQMNSLKPEDTAVYYCNVKDWGNIWEYDYWGQGTQVTVSA
B6: 116 (VHH)
VHH: B5 VHH with L11P
B7: 66 (VHH)
VHH: QVQLVESGGGLVQAGGSLRLSCAASGFPVDTSYMYWYRQAPGKEREWVAAIWSWGQWTYYADSVKGRFTISRDNAKNTVYLQMNSLKPEDTAVYYCAVYVGQYYIGQGTQVTVSA
B8: 31 [Sybody 31] (VHH)
VHH: QVQLVESGGGLVQAGGSLRLSCAASGFPVSQNWMWWYRQAPGKEREWVAAISSKGQTTHYADSVKGRFTISRDNAKNTVYLQMNSLKPEDTAVYYCNVKDWGAYWYSYDYWGQGTQVTVSA
B9: 6 [Sybody 6] (VHH)
VHH: QVQLVESGGGLVQAGGSLRLSCAASGFPVYATWMYWYRQAPGKEREWVAAISSTGWSTYYADSVKGRFTISRDNAKNTVYLQMNSLKPEDTAVYYCNVKDVGFWWDQYDYWGQGTQVTVSA
B10: 134 (VHH)
VHH: B9 VHH with A31Q, W33Y, S52N, W56Y, S57F, Y59R, V101L, F103W, W105S, D106E
B11: 89 (VHH)
VHH: QVQLVESGGGLVQAGGSLRLSCAASGFSVNYSYMYWYRQAPGKEREWVAAISSWGWYTVYADSVKGRFTISRDNAKNTVYLQMNSLKPEDTAVYYCNVKDRGNDDSSYDYWGQGTQVTVSA
B12: 19 [Sybody 19] (VHH)
VHH: QVQLVESGGGSVQAGGSLRLSCAASGNIHAINYLGWFRQAPGKEREGVAALDTWVGYTYYADSVKGRFTVSLDNAKNTVYLQMNSLKPEDTALYYCAAAEWGWQGPLKMRAYEYWGQGTQVTVSA
B13: 24 [Sybody 24] (VHH)
VHH: QVQLVESGGGSVQAGGSLRLSCAASGAIERIWYLGWFRQAPGKEREGVAALITFTGHTYYADSVKGRFTVSLDNAKNTVYLQMNSLKPEDTALYYCAAAYDGWFSPLTTRRYRYWGQGTQVTVSA
B14: 80 (VHH)
VHH: QVQLVESGGGSVQAGGSLRLSCAASGSISSITYLGWFRQAPGKEREGVAALFTWWGWTYYADSVKGRFTVSLDNAKNTVYLQMNSLKPEDTALYYCAAASEGMYWPLTKNHYSYWGQGTQVTVSA
B15: 94 (VHH)
VHH: QVQLVESGGGLVQAGGSLRLSCAASGFPVYKASMYWYRQAPGKEREWVAAINSKGWWTEYADSVKGRFTISRDNAKNTVYLQMNSLKPEDTAVYYCNVKDYGYEQLWYDYWGQGTQVTVSA
B16: 3 [Sybody 3] (VHH)
VHH: QVQLVESGGGLVQAGGSLRLSCAASGFPVWAAYMFWYRQAPGKEREWVAAIGSTGWYTRYADSVKGRFTISRDNAKNTVYLQMNSLKPEDTAVYYCHVKDAGWNWWAYDYWGQGTQVTVSA
B17: 101 (VHH)
VHH: B16 VHH with A32T, F35Y, Y57F, R59V, H97N, A101R, N104Q, W105T, W106A, A107Q
B18: 140 (VHH)
VHH: B16 VHH with A32T, F35Y, Y57F, R59V, H97N, A101Y, N104F, W105E, W106Y, A107R
B19: 88 (VHH)
VHH: B16 VHH with A31H, A32S, F35Y, R59T, H97N, A101Q, N104I, W105H, W106K, A107Q
B20: 44 [Sybody 44] (VHH)
VHH: B16 VHH with W30D, A32T, Y33S, F35Y, G52N, R59E, H97N, A101Y, N104Y, W105Y
B21: 111 (VHH)
VHH: QVQLVESGGGLVQAGGSLRLSCAASGFPVYSSWMRWYRQAPGKEREWVAAINSHGDYTEYADSVKGRFTISRDNAKNTVYLQMNSLKPEDTAVYSCNVKDHGYYMKHYDYWGQGTQVTVSA
B22: 121 (VHH)
VHH: B21 VHH with Y30E, S31Q, H54W, D56E, S95Y, H101Q, Y104E, M105H, K106Q, H107R
B23: 30 [Sybody 30] (VHH)
VHH: QVQLVESGGGLVQAGGSLRLSCAASGFPVKSRRMYWYRQARGKEREWVAAIYSWGATTVYADSVKGRFTISRDNAKNTVYLQMNSLKPEDTAIYYCNVKDWGSWYQYYDYWGQGTQVTVSA
B24: 100 (VHH)
VHH: QVQLVESGGGLVQAGGSLRLSCAASGFPVAQRVMHWYRQAPGKEREWVAAIHSAGAQTFYADSVKGRFTISRDNAKNTVYLQMNSLKPEDTAVYYCNVKDDGKYYWLYDYWGQGTQVTVSA
B25: 1 [Sybody 1] (VHH)
VHH: QVQLVESGGGLVQAGGSLRLSCAASGFPVYSRHMYWYRQAPGKEREWVAAIASQGMKTWYADSVKGRFTISRDNAKNTVYLQMNSLKPEDTAVYYCNVKDTGQWWGLYDYWGQGTQVTVSA
B26: 55 (VHH)
VHH: QVQLVESGGGLVQAGGSLRLSCAASGFPVAARWMRWYRQAPGKEREWVAAINSFGDYTEYADSVKGRFTISRDNAKNTVYLQMNSLKPEDTAVYYCNVKDYGSQWWAYDYWGQGTQVTVSA
B27: 105 (VHH)
VHH: B26 VHH with A30Y, A31I, R32K, N52S, F54N, D56E, S103H, Q104T, W105Q, A107R
B28: 57 (VHH)
VHH: B26 VHH with A30K, A31Q, R32K, F54N, K99R, S103D, W105L, W106F, A107E
B29: 58 (VHH)
VHH: B26 VHH with A30W, A31T, F54Y, K99R, Y101N, S103A, Q104Y, W106H, A107Y
B30: 104 (VHH)
VHH: B26 VHH with A30W, A31N, R32S, F54Y, Y57H, S103E, Q104W, W106N, A107N
B31: 109 (VHH)
VHH: B26 VHH with A30G, A31H, R32K, F54H, D56E, Y57F, S103W, Q104T, W105A
B32: 48 [Sybody 48] (VHH)
VHH: QVQLVESGGGLVQAGGSLRLSCAASGFPVRWHYMYWYRQAPGKEREWVAAISSHGTYTYYADSVKGRFTISRDNAKNTVYLQMNSLKPEDTAVYYCSVKDIGRWFSKYDYWGQGTQVTVSA
B33: 143 (VHH)
VHH: QVQLVESGGGLVQAGGSLRLSCAASGFPVYSAVMYWYRQAPGKEREWVASIGSTGQHTYYADSVKGRFTISRDNAKNTVYLQMNSLKPEDTAVYYCNVKDVGEYMYWYDYWGQGTQVTVSA
B34: 20 [Sybody 20] (VHH)
VHH: QVQLVESGGGSVQAGGSLRLSCAASGNIWTIRYLGWFRQAPGKEREGVAALDTASGSTYYADSVKGRFTVSLDNAKNTVYLQMNSLKPEDTALYYCAAAWWGYTVPLMWQHYYYWGQGTQVTVSA
B35: 87 (VHH)
VHH: QVQLVESGGGLVQAGGSLRLSCAASGFPVVHLSMAWYRQAPGKEREWVAAINSFGDHTHYADSVKGRFTISRDNAKNTVYLQMNSLKPEDTAVYYCNVKDSGWFWTQYDYWGQGTQVTVSA

Biological target: chicken PHT1 (purified, wild type) (chicken)
Sequence (chain, as listed by the source): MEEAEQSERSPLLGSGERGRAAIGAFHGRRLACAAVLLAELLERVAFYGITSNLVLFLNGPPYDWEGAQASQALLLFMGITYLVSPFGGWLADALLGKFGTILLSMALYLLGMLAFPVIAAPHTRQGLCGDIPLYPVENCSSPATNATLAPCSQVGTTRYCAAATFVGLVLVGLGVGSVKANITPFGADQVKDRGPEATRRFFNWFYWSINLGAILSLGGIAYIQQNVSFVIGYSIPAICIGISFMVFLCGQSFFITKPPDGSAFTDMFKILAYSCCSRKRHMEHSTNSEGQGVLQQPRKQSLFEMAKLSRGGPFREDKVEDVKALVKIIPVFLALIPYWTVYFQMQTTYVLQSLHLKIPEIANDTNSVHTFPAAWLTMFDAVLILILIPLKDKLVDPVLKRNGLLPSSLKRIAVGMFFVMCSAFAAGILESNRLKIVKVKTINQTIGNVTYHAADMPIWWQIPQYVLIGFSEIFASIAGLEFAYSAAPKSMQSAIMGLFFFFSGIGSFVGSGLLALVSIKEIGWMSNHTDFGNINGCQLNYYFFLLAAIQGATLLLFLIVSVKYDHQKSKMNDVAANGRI

Binder	binding result
B1	binds
B2	binds
B3	binds
B4	binds
B5	binds
B6	binds
B7	binds
B8	binds
B9	binds
B10	binds
B11	binds
B12	binds
B13	binds
B14	binds
B15	binds
B16	binds
B17	binds
B18	binds

Binder	binding result
B19	binds
B20	binds
B21	binds
B22	binds
B23	binds
B24	binds
B25	binds
B26	binds
B27	binds
B28	binds
B29	binds
B30	binds
B31	binds
B32	binds
B33	binds
B34	binds
B35	binds
